From article PMC4569318 (Molecular Biology of the Cell, 2015) come the findings set out here.

For one assay, the target named is T1, Sro7-D361K (S. cerevisiae, UniProt Q12038 1-1033, D361K).
T1 sequence: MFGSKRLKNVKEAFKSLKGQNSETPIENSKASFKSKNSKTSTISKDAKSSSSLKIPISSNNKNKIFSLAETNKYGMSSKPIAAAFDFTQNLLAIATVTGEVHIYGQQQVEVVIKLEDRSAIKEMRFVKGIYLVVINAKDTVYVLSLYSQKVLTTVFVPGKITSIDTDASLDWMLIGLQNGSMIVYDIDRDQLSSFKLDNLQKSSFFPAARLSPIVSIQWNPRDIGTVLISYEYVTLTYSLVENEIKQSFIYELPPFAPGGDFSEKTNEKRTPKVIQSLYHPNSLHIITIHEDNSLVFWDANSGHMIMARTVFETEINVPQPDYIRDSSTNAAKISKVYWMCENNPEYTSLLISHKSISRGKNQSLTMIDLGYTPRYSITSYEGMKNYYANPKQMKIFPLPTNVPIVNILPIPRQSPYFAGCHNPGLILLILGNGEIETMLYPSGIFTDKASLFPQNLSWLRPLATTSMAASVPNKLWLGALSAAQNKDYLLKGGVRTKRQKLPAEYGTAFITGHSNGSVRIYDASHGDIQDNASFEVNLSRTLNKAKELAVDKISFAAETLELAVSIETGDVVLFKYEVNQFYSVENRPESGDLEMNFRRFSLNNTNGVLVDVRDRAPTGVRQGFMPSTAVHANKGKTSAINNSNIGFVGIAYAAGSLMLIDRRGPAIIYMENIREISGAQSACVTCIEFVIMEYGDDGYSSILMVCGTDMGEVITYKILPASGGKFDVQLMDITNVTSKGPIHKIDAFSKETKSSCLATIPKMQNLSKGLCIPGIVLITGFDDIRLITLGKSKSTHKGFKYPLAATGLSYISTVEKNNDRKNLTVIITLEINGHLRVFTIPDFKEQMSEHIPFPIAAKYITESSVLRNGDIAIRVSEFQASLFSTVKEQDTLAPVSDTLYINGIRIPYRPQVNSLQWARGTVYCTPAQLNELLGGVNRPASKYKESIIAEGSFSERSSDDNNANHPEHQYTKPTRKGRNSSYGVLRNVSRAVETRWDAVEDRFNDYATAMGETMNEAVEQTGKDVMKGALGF
The experiment in a line: pull-down.

The target in assay [1] is T2, Sro7 (wild type, full length) (S. cerevisiae, UniProt Q12038 1-1033).
T2 sequence: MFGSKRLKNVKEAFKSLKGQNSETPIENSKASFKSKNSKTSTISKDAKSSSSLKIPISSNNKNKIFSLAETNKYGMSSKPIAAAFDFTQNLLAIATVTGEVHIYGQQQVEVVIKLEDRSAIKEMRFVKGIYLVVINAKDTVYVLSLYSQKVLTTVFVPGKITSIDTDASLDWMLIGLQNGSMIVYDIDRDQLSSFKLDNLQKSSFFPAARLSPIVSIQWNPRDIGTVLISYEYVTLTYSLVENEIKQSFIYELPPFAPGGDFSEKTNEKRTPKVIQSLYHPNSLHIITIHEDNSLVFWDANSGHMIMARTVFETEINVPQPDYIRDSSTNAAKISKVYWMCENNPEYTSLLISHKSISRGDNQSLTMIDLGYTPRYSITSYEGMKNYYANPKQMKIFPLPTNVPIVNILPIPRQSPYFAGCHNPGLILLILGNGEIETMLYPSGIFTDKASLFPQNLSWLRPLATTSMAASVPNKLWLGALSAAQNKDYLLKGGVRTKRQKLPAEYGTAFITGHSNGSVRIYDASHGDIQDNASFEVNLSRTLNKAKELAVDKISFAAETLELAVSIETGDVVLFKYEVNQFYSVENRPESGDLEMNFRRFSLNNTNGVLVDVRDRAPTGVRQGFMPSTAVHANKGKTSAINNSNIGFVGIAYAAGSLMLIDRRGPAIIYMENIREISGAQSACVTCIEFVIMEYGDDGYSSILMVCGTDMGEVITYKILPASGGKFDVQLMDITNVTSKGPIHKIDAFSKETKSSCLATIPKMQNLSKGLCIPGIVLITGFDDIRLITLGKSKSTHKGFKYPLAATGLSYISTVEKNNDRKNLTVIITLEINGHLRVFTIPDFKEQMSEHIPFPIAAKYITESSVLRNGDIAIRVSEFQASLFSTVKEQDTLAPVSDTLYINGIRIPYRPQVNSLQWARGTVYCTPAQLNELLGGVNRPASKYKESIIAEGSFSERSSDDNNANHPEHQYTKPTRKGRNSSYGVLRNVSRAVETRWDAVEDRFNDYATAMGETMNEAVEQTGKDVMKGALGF
In words: pull-down.

B1: GST-Sec4 (wild type) (natural protein)
chain: MSGLRTVSASSGNGKSYDSIMKILLIGDSGVGKSCLLVRFVEDKFNPSFITTIGIDFKIKTVDINGKKVKLQLWDTAGQERFRTITTAYYRGAMGIILVYDVTDERTFTNIKQWFKTVNEHANDEAQLLLVGNKSDMETRVVTADQGEALAKELGIPFIESSAKNDDNVNEIFFTLAKLIQEKIDSNKLVGVGNGKEGNISINSGSGNSSKSNCC
As to B1, the binding result (with Sro7-D361K; in assay [1]) was “binds” each time.

B2: GST-Sec9 (full length) (natural protein)
chain: MGLKKFFKIKPPEEATPEQNKDTLMELGISVKNPSKKRKEKFAAYGKFANDKAEDKVYAPPGYEQYARPQDELEDLNASPLDANANEATAGSNRGSSGTQDLGNGAESNSMQDPYAIENDDYRYDDDPYARFQANKSNGRGSVNAAPYGDYGGGYNGTSLNSYNNDGPYSNQNTSNSWVNANGRNSLNHSNSTLNVGPSRQTRQPPVSTSTNSLSLDQRSPLANPMQEKRNPYADMNSYGGAYDSNTNRSSGTRQGSSKNANPYASMANDSYSNGNLNRSANPYSSRSVRQPQSQQAPMTYTPSFIASDEAARNSEVDLNEEPRTGEFDFEEVYADKSAENRAALDEPDLNAVMTNEDSIDLNASEVDHSSRQQQQQQWFMDEQQQQQQHFNATNNQYGDQRGYKTFEEIQKEEEARQQQEEDEAVDEIKQEIKFTKQSSVASTRNTLKMAQDAERAGMNTLGMLGHQSEQLNNVEGNLDLMKVQNKVADEKVAELKKLNRSILAVHVSNPFNSKRRRREREEQLKNRKIEEKLMREQTSQQLSQSTQRIEGAMNANNNISEVRERYQRKNVLEKAKRYQFENDEEDDEMELEIDRNLDQIQQVSNRLKKMALTTGKELDSQQKRLNNIEESTDDLDINLHMNTNRLAGIR
B2: in assay [1], the binding result is given as “binds”.
